Values of other authors in paper PMC4223872.

Biological target: Calmodulin C-lobe (Homo sapiens) (UniProt P0DP23)
Assay: ITC

Sequence of Nav1.5 1489-1522 (Q14524 1489-1522): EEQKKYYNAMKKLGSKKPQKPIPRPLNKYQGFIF

Kd: 19 µM
Substance: Nav1.5 1489-1522 (from UniProt Q14524)
